Experiments:
[1] = biological target: extra-cellular domain of Siglec-9 fused to a C-terminal his-tag (Homo sapiens (Human), UniProt Q9Y336 18-348); assay: ELISA, coated his-tagged Siglec-9 extracellular domain, anti-human Fc gamma detection, Abs 450 nm
Excerpt: (SEQ ID NO: 44) […] […] […] […] […] […] […]. For detection of bound IgG either polyclonal anti- rabbit IgG antibody (68D4; Biolegend, #406401), or anti-human Fey fragment (humanized 68D4 and mAbA; Jackson Immuno Research laboratories, #109-035-098) were used.

[2] = biological target: T1, Siglec-7-Fc (in-house production); assay: ELISA, coated Siglec-7-Fc 1 µg/ml, single antibody concentration, anti-human Fab detection, Abs 450 nm, n=3
T1 construct: The entry holds the Siglec-7 part and the Fc together; also called Siglec-7-Fc protein
Experimental: (§1) Specificity towards Siglec-5, Siglec-7, Siglec-8, Siglec-15 and Siglec-9 was assayed in enzyme-linked immunosorbent assay (ELISA) using 96 well half-area ELISA plates (Corning). Siglec-5-Fc (R&D systems), Siglec-7-Fc (in-house production, Siglec-7-Fc protein used had the following amino acid sequence:
(§2) (SEQ ID NO: 59)) […] […] […] […] […] […] […] […] […] […] […] […], Siglec-8-Fc (R&D systems), Siglec-15- Fc (R&D systems) and Siglec-9-Fc (in-house production, SEQ ID NO: 11) were coated at 1 μg/ml in 50 mM carbonate-bicarbonate buffer pH 9.6 for 15-20 hours at 4° C.
(§3) Antigens were washed away (Tecan Hydrospeed) and plates were blocked with 5% skimmed milk in phosphate-buffered saline (PBS). After washing the plates, antibodies were added at 5 μg/ml (33 nM) in 0.5% milk PBS in triplicates. Plates with antibodies were incubated for 1 hour at room temperature. Plates were washed and bound antibodies were detected by horseradish peroxidase (HRP)-labeled polyclonal anti-rabbit IgG antibody (Biolegend) or anti-human Fab fragment for mAbA (Sigma Aldrich). 3,3′,5,5′-Tetramethylbenzidine (TMB; Sigma Aldrich) development was stopped by addition of sulfuric acid and absorbance was detected at 450 nm (Tecan, CM […] MONO 200).

[3] = biological target: T2, Siglec-8-Fc (R&D systems) (UniProt Q9NYZ4 17-363, limits assumed); assay: ELISA, coated Siglec-8-Fc 1 µg/ml, single antibody concentration, anti-human Fab detection, Abs 450 nm, n=3
T2 construct: Bought reagent; not shown: Fc part of the bought fusion; not described
Experimental: as §1, §2, §3

[4] = biological target: T3, Siglec-9 protein (construct not stated; antigen of Examples 3 and 4) (human, UniProt Q9Y336 18-348, limits assumed); assay: ELISA, coated Siglec-9 1 µg/ml, antibody titrated, anti-human Fab detection, Abs 450 nm, three-parameter fit, n=3
Experimental: (§4) FIG. 2: Binding curves of monoclonal antibodies (68D4 and 224B1; comparative monoclonal antibodies mAbA and 5C6 & negative control 53C3) towards Siglec-9 as analysed by ELISA. Binding of the monoclonal antibody to Siglec-9, as determined by measurement of the accumulated coloured product at 450 nm after stopping the reaction, is plotted against the concentration of the monoclonal antibody under evaluation.
Antibody binding affinity towards Siglec-9 was measured by a dilution series of the analysed antibodies on a fixed concentration of Siglec-9 protein in ELISA. To this end, Siglec-9 was coated at 1 μg/ml in 50 mM carbonate-bicarbonate buffer pH 9.6 for 15-20 hours at 4° C. Antigen solution was washed away (Tecan Hydrospeed) and plates were blocked with 5% skimmed milk in phosphate-buffered saline (PBS) for 1 hour at room temperature. Plates were washed and antibodies were added at concentrations of 0-420 nM. […] Bound antibodies were detected by addition of horseradish peroxidase (HRP)-coupled secondary antibodies. Rabbit antibodies were detected by polyclonal anti-rabbit IgG antibody (Biolegend), mAbA by anti-human Fab fragment (Sigma Aldrich). […] Absorbance was detected at 450 nm (Tecan, CM […] MONO 200). Data were fitted and EC50 values were determined by three-parameter analysis in GraphPad Prism (GraphPad Software)

[5] = biological target: T4, Siglec-9 expressed on cells (human, UniProt Q9Y336 18-463); assay: flow cytometry on human CD14+ monocytes (PBMC), mean RFU of the anti-human secondary antibody, three-parameter fit
T4 construct: also called monocyte-expressed Siglec-9
Experimental: Human ex vivo PBMC were stained with fluorescence-labeled (allophycocyanin, APC) antibody to the monocyte marker CD14 (Biolegend) in assay buffer (0.5% (v/v) heat-inactivated fetal bovine serum (Gibco), 2 mM EDTA in phosphate-buffered saline). Subsequently, cells were incubated with antibodies under evaluation at various concentrations (67 nM-0.38 pM). After a washing step cells were incubated with fluorescence-labeled (Brilliant Violet 421™) secondary antibody against human IgG (mAbA) or rabbit IgG (all other monoclonal antibodies under evaluation; both secondary antibodies from Biolegend).
Binding of Siglec-9-specific antibodies to monocytes (CD14-positive life cells) was analysed with a CytoFLEX flow cytometer (Beckham Coulter's). The mean fluorescence intensity of the secondary antibody staining in the CD14-positive population at each dilution was determined using Flow Jo software (BD). Datapoints generated by this analysis were fitted and EC50 values were determined by three-parameter analysis in GraphPad Prism (GraphPad Software)

[6] = biological target: T2, Siglec-8-Fc (R&D systems); assay: ELISA, coated Siglec-8-Fc 1 µg/ml, single antibody concentration, Abs 450 nm, n=3
Experimental: as §1, §2, §3

[7] = biological target: T3, Siglec-9 protein (construct not stated; …); assay: ELISA, coated Siglec-9 1 µg/ml, antibody titrated, Abs 450 nm, three-parameter fit, n=3
Experimental: as §4
Antibody binding affinity towards Siglec-9 was measured by a dilution series of the analysed antibodies on a fixed concentration of Siglec-9 protein in ELISA. To this end, Siglec-9 was coated at 1 μg/ml in 50 mM carbonate-bicarbonate buffer pH 9.6 for 15-20 hours at 4° C. Antigen solution was washed away (Tecan Hydrospeed) and plates were blocked with 5% skimmed milk in phosphate-buffered saline (PBS) for 1 hour at room temperature. Plates were washed and antibodies were added at concentrations of 0-420 nM. After incubation at room temperature for 1 hour plates were washed once more. Bound antibodies were detected by addition of horseradish peroxidase (HRP)-coupled secondary antibodies. Rabbit antibodies were detected by polyclonal anti-rabbit IgG antibody (Biolegend), mAbA by anti-human Fab fragment (Sigma Aldrich). After a last washing step, plates were developed by the addition of 3,3′,5,5′-Tetramethylbenzidine (TMB; Sigma Aldrich). Reaction was stopped by addition of sulfuric acid. Absorbance was detected at 450 nm (Tecan, CM […] MONO 200). Data were fitted and EC50 values were determined by three-parameter analysis in GraphPad Prism (GraphPad Software)

T3 sequence (Q9Y336 18-348 limits assumed): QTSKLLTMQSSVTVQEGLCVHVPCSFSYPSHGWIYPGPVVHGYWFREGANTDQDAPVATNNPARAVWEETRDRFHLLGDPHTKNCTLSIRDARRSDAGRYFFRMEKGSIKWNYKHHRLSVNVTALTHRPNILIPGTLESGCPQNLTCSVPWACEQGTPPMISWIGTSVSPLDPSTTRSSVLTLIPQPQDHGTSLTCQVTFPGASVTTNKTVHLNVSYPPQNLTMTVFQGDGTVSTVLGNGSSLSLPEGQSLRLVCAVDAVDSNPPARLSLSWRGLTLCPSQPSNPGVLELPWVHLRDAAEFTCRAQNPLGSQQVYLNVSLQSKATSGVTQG
T2 sequence (Q9NYZ4 17-363 limits assumed): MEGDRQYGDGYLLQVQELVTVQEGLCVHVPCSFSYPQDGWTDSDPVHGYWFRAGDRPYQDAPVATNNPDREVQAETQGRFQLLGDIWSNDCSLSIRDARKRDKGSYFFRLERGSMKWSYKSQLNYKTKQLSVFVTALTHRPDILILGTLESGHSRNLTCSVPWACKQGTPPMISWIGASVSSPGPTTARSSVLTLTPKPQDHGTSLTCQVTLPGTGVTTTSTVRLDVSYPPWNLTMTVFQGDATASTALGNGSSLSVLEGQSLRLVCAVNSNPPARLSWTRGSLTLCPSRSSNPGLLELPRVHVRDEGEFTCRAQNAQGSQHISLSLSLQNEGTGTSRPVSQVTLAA
Sequence of extra-cellular domain of Siglec-9 fused to a C-terminal his-tag (Q9Y336 18-348 limits assumed): as the sequence (Q9Y336 18-348 limits assumed) above
T1 sequence (chain, as listed by the source limits assumed): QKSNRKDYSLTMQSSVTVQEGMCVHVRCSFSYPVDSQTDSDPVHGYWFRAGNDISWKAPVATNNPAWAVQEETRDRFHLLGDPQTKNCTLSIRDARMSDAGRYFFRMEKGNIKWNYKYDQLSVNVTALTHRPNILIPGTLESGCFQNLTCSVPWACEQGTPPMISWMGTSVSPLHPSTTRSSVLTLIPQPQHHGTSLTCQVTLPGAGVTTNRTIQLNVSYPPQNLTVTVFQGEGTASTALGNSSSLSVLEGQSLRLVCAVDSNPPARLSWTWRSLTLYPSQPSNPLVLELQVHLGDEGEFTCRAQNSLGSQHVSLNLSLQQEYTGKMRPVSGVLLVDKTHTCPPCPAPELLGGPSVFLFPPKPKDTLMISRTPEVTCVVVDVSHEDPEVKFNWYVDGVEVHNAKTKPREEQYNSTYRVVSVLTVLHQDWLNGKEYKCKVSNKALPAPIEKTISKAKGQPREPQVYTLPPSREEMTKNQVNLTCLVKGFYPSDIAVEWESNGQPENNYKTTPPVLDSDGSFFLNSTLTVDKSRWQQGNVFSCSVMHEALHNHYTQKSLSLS
T4 sequence (Q9Y336 18-463 limits assumed): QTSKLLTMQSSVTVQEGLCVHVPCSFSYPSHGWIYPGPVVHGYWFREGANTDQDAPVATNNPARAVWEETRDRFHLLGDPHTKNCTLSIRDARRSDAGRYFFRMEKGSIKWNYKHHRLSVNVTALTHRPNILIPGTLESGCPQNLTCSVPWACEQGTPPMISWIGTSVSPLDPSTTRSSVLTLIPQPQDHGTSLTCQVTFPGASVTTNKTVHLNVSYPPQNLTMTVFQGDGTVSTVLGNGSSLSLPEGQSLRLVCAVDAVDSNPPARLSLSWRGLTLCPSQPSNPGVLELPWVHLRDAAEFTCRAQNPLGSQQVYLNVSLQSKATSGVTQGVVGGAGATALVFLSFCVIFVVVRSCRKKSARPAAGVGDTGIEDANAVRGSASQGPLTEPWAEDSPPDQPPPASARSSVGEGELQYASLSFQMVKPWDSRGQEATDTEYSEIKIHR

Row | EC50 (read off the curve) [1] [pM] | binding result [2] | binding result [3] | EC50 [4] [nM] | EC50 [5] [nM] | binding result [6] | EC50 [7] [nM] | Binder
1 | ~60 | no binding (tested: 5 µg/ml) | no binding (tested: 5 µg/ml) | 0.42 | 0.58 |  |  | comparative monoclonal antibody mAbA (WO 2017/153433), mouse-human chimera (antibody, human IgG1, kappa, V domains shown) VH: QVQLQQPGAELVKPGSPVKLSCKASYFTFTSYWMHWVRQRPGQGLEWIGEINPSNGHTNYNEKFESKATLTVDRSSSTAYMQLSSLTSEDSAVFYCANGVESYDFDDALDYWGQGTSVTVSS VL: DIQMTQTTSSLSASLGDRVTISCRASQDINNYLNWYQQKPDGTIKLLIYYTSRLHSGVPSRFSGSGSGTDYSLTINNLEQEDIATYFCQQGNTLPFTFGGGTKLEIKR
2 |  |  |  |  |  | no binding (tested: 5 µg/ml) | 0.1 | monoclonal antibody 224B1 (rabbit) (antibody, V domains shown) VH: QSVEESGGRLVTPETPLTLTCTASGFSLSSYYMSWVRQAPGKGLEWIGYIWTDGSAHYATWTKGRFTISKTSSTTVDLKITSPTTEDTATYFCVRANSGSHTYIEKFNLWGPGTLVTVSS VL: DVVMTQTPASVEATVGGSVTIKCQASPSINDELSWYQQKPGQRPTLLIYEASALESGVPSRFKGSGSGTEFTLTIGDLECADAATYYCQCTYGSRSDISYGNTFGGGTEVVVKG

Source: patent US20230009582A1 (MEMO THERAPEUTICS, published 2023)
